Results taken from patent US20260008872A1 (NANO TAG BIOTECHNOLOGIES, published 2026).
Ends that are not written are not given here.

Biological target: T1, epitope tag peptide SRLEEELRRRLTE (SEQ ID NO: 2), biotinylated (also: biotinylated (site and linker not given here))
T1 construct: Rationally designed peptide; also called ALFA-tag
T1 peptide: SRLEEELRRRLTE
Experiment: BLI (Octet), biotinylated peptide on SAX2.0 biosensors, 1:1 global fit
Method: (§1) To determine the affinity of humanized NbALFA variants to the epitope tag of SEQ ID NO: 2, an Octet RED96 or an Octet HTX from ForteBio was utilized. The measurement principle is based on biolayer interferometry (BLI). SAX2.0 biosensors were soaked for 10 min in kinetic buffer (KB), supplied by the manufacturer of the instrument. At first, a 60 or 120 sec baseline in KB was measured, followed by a loading step of 240 sec with 83 ng/ml of biotinylated peptide of SEQ ID NO: 2. After loading, free streptavidin entities on the biosensor were quenched during a 120 sec incubation step in a 100 μg/ml biocytin solution. Subsequently, a 60 to 600 sec baseline in KB was measured followed by association of the VHH. The VHH was applied with a maximal concentration of 10 nM and was 1:1 serial diluted in KB. As a reference, only KB was measured. Association was performed for 900 sec, followed by a dissociation time of 1500 sec in KB. The signal of the reference well was subtracted from the signal of all other biosensors and the signals of these processed data were aligned to the average of the second baseline. For inter-step correction, the data were aligned to the dissociation step and Savitzky-Golay filtering was applied to all curves. Association and dissociations were globally fitted using a 1:1 Langmuir binding model.

Binder | Kd | koff | kon
Variant 7 of humanized NbALFA (VHH, CDR-grafted variant, produced in E. coli and purified by IMAC; The tag is not described) VHH: EVQLVESGGGLVQPGGSLRLSCAASGVTISALNAMAMGWFRQAPGKGRELVAAVSERGNAMYRESVQGRFTISRDNAKRMVYLQMNSLRAEDTAVYYCHVLEDRVDSFHDYWGQGTQVTVSS | 1.86 nM | 0.000276 s⁻¹ | 149000 M⁻¹ s⁻¹
wtNbALFA (original alpaca-derived NbALFA single-domain antibody) (VHH, VHH; Any purification tag on the construct used in the BLI and SpA assays is not described; also called wild type NbALFA) VHH: EVQLQESGGGLVQPGGSLRLSCTASGVTISALNAMAMGWYRQAPGERRVMVAAVSERGNAMYRESVQGRFTVTRDFTNKMVSLQMDNLKPEDTAVYYCHVLEDRVDSFHDYWGQGTQVTVSS | 0.16 nM | 6.37e-05 s⁻¹ | 399000 M⁻¹ s⁻¹

Biological target: T1, epitope tag peptide SRLEEELRRRLTE (SEQ …)
Experiment: biolayer interferometry (Octet); biotinylated peptide of SEQ ID NO: 2 loaded on SAX2.0 biosensors; VHH in solution, 1:1 serial dilution (Method 1)
Excerpt: FIG. 1: Affinity of humanized NbALFA variants generated by CDR grafting. A, affinity measurements of the original alpaca-derived NbALFA (wtNbALFA) for the peptide of SEQ ID NO: 2. B, affinity measurements of variant 3 for the peptide of SEQ ID NO: 2. C, affinity measurements of variant 4 for the peptide of SEQ ID NO: 2. D, affinity measurements of variant 5 for the peptide of SEQ ID NO: 2. E, affinity measurements of variant 6 for the peptide of SEQ ID NO: 2. F, affinity measurements of variant 7 for the peptide of SEQ ID NO: 2. Affinity was determined using biolayer interferometry as described in Method 1 of the Examples.
as §1

Binder | binding result
Variant 3 of humanized NbALFA (VHH, CDR-grafted variant, produced in E. coli and purified by IMAC; The tag is not described) VHH: EVQLLESGGGLVQPGGSLRLSCAASGVTISALNAMAMGWFRQAPGKGLEFVAAVSERGNAMYRESVQGRFTISRDNSKNTLYLQMNSLRAEDTAVYYCAALEDRVDSFHDYWGQGTLVTVSS | no binding
Variant 4 of humanized NbALFA (VHH, CDR-grafted variant, produced in E. coli and purified by IMAC; The tag is not described) VHH: EVQLLESGGGLVQPGGSLRLSCAASGVTISALNAMAMGWFRQAPGKGLEFVAAVSERGNAYYRDSVKGRFTISRDNSKNTLYLQMNSLRAEDTAVYYCAALEDRVDSFHDYWGQGTLVTVSS | no binding
Variant 6 of humanized NbALFA (VHH, CDR-grafted variant, produced in E. coli and purified by IMAC; The tag is not described) VHH: EVQLQASGGGFVQPGGSLRLSCAASGVTISALNAMAMGWFRQAPGKEREFVSAVSERGNAMYRESVQGRFTISRDNSKNTVYLQMNSLRAEDTATYYCAALEDRVDSFHDYWGQGTQVTVSS | no binding
Variant 5 of humanized NbALFA (VHH, CDR-grafted variant, produced in E. coli and purified by IMAC; The tag is not described) VHH: EVQLQASGGGFVQPGGSLRLSCAASGVTISALNAMAMGWFRQAPGKEREFVSAISERGNAYYRDSVKGRFTISRDNSKNTVYLQMNSLRAEDTATYYCAALEDRVDSFHDYWGQGTQVTVSS | no binding

Biological target: T1, epitope tag peptide SRLEEELRRRLTE (SEQ …)
Experiment: BLI (Octet), biotinylated peptide on SAX2.0 biosensors, 1:1 global fit
Remark: another data set of the same source
Method: as §1

Binder | Kd | koff | kon
Variant 11 of humanized NbALFA (VHH) VHH: EVQLVESGGGLVQPGGSLRLSCAASGVTISALNAMAMGWYRQAPGKRREMVAAVSERGNAMYRESVKGRFTISRDNAKRMVYLQMNSLRAEDTAVYYCHVLEDRVDSFHDYWGQGTQVTVSS | 0.0595 nM | 3.7e-05 s⁻¹ | 622000 M⁻¹ s⁻¹
Variant 12 of humanized NbALFA (VHH) VHH: EVQLVESGGGLVQPGGSLRLSCAASGVTISALNAMAMGWYRQAPGKRREMVAAVSERGNTMYRESVKGRFTISRDNAKRMVYLQMNSLRAEDTAVYYCHVLEDRVDSFHDYWGQGTQVTVSS | 0.248 nM | 0.000151 s⁻¹ | 609000 M⁻¹ s⁻¹
Variant 8 of humanized NbALFA (VHH, Further engineered humanized variant; Any tag on the tested construct is not described) VHH: EVQLVESGGGLVQPGGSLRLSCAASGVTISALNAMAMGWFRQAPGKRREMVAAVSERGNAMYRESVQGRFTISRDNAKRMVYLQMNSLRAEDTAVYYCHVLEDRVDSFHDYWGQGTQVTVSS | 0.263 nM | 0.000263 s⁻¹ | 1e+06 M⁻¹ s⁻¹
Variant 13 of humanized NbALFA (VHH) VHH: EVQLVESGGGLVQPGGSLRLSCAASGVTISALNAMAMGWYRQAPGKRREMVAAVSERGNTYYRDSVKGRFTISRDNAKRMVYLQMNSLRAEDTAVYYCHVLEDRVDSFHDYWGQGTQVTVSS | 0.217 nM | 0.000167 s⁻¹ | 767000 M⁻¹ s⁻¹
Variant 14 of humanized NbALFA (VHH) VHH: EVQLVESGGGLVQPGGSLRLSCAASGVTISALNAMAMGWYRQAPGKRREMVAAVSERGNAMYRESVKGRFTISRDNSKNTLYLQMNSLRAEDTAVYYCHVLEDRVDSFHDYWGQGTQVTVSS | 0.218 nM | 0.00013 s⁻¹ | 596000 M⁻¹ s⁻¹
Variant 15 of humanized NbALFA (VHH) VHH: EVQLVESGGGLVQPGGSLRLSCAASGVTISALNAMAMGWYRQAPGKRREMVAAVSERGNTYYRDSVKGRFTISRDNSKNTLYLQMNSLRAEDTAVYYCHVLEDRVDSFHDYWGQGTQVTVSS |  | 0.000302 s⁻¹ | 1.59e+06 M⁻¹ s⁻¹
Variant 10 of humanized NbALFA (VHH) VHH: EVQLVESGGGLVQPGGSLRLSCAASGVTISALNAMAMGWYRQAPGKRREMVAAVSERGNTMYRESVQGRFTISRDNAKRMVYLQMNSLRAEDTAVYYCHVLEDRVDSFHDYWGQGTQVTVSS | 0.306 nM | 0.000147 s⁻¹ | 480000 M⁻¹ s⁻¹
Variant 9 of humanized NbALFA (VHH, Further engineered humanized variant; Any tag on the tested construct is not described) VHH: EVQLVESGGGLVQPGGSLRLSCAASGVTISALNAMAMGWYRQAPGKRREMVAAVSERGNAMYRESVQGRFTISRDNAKRMVYLQMNSLRAEDTAVYYCHVLEDRVDSFHDYWGQGTQVTVSS | 0.182 nM | 3.69e-05 s⁻¹ | 203000 M⁻¹ s⁻¹
wtNbALFA (original alpaca-derived NbALFA single-domain antibody) (VHH, VHH; Any purification tag on the construct used in the BLI and SpA assays is not described; also called wild type NbALFA) VHH: EVQLQESGGGLVQPGGSLRLSCTASGVTISALNAMAMGWYRQAPGERRVMVAAVSERGNAMYRESVQGRFTVTRDFTNKMVSLQMDNLKPEDTAVYYCHVLEDRVDSFHDYWGQGTQVTVSS | 0.16 nM | 6.37e-05 s⁻¹ | 399000 M⁻¹ s⁻¹
